The DeepSol protein solubility set

Test: soluble on expression in E. coli; label from the status in PepcDB or PDB records

Row | Sequence | soluble on expression in E. coli
1 | MGSDKIHHHHHHMGKLLAINISKERGTEKREVPQAELVADYGIMGDAHAGKWHRQVSLLSAEKIDAFRARGAQIDNGAFGENLIISGFDFKNLPLGTRFCIGDAILEMTQIGKQCHSHCAIYKRMGECIMPKEGVFAVVIRGGQIHTGDEVKLIPANIYASIKDRPADSRCELLTVTEGAHAGEKALYIDGRIRVASGSAWADEINDNDNSIVMFKQQIGSRPRLIICGGGHVSAALVRMASLLAFDIWVIEDRPLFADNAKRQGADHVICGDYKKTLARLEPQADDYYVCMTRGHRFDMECLTEIFRKPYAYVGMMGSKKRAAIVKKDLEESGFSRENISGLHSPIGLAIGGQTPEEIALSVISEIVKCKNERTGCTQVDNEVLDALIEASDEKYILCTIIKKNGSAPRGVGTQMLVSSDNRIIGTIGGGCAEAEVISQCRRLFRKQEFKCGLMDVSMNTDDAEKEGMVCGGSISVLLEQLG | not soluble
2 | MASLGEILEGRATDIYFVRTRRVAEKYGVGGKRVRMEVHAYSLPRGYEWAVYAGLEEALALLQGKPVTVYSLPEGTVFERKDPLMVVEGRFQDIILFETALLGLLRFSTSIATKAARVRLAAGRGKTVLFFGLRALHPAVQPAADRAALVGGLDGVSGVLSREYLGVEPRGTMPHALIIVFGSQVEAWRAFAETFKEETPVIALVDTFWDEREEALMAARELGEVLAGVRLDTPSSRRGRMRDIVEEVRWALDIHGYKHVKIFVSGGLDEERVAELRDVADGFGVGTTIAAAPNIDISMDVVEVHEDGEWRPRTKRGKLPGARSIVLCRGEKRIVRLGEEPEGCEPLTRKYLEEGRLAQSLPSLDEIRSYVLKQLENLGLQ | soluble
3 | MTGSQEDQPKIIIDQEQPKTLETEHQPEPSSSSPDQKKWGTHVMGAPAAPVAHPDNQQAAAWVAGDNQQTQYQPYVIYSPVEHPTTNNPLEPVIGMFHTWSRKAETVARNLWHNLKTGPSMSETAWGKVNLTAKAITKGGFESLFRQIFGTEPNETLKKTFACYLSTTTGPVAGTVYLSNARVAFCSDRPLYFTAPSGQESWSYYRVVVPLANVATVNPVVVKETPPEKYIQLTTVDGHDFWFMGFVNYEKATHHLLTSVSDFQTAHGSVSG | soluble
4 | GSSGSSGAAFAKILDPAYQVDKGGRVRFVVELADPKLEVKWYKNGQEIRPSTKYIFEHKGCQRILFINNCQMTDDSEYYVTAGDEKCSTELFVRSGPSSG | soluble
5 | MSWMQNLKNYQHLRDPSEYMSQVYGDPLAYLQETTKFVTEREYYEDFGYGECFNSTESEVQCELITGEEDPKLLPYDKRLAWHFKEFCYKTSAHGIPMIGEAPLEHHHHHH | soluble
6 | NDAFRWKTQFNFSTNKNKIIKLHPDLKTFVYGDESFSSSYSMRLVEGGSFGDIYGKAFERDENGKVAFTTDKDGDKIPNVIGGGNTEKVGNCNPDFMLGWSNTFTYKGFSLYFLIDGRFGGDVLSQTQAELDQRGVSLNSGKARDAGYINIDGTQVKPRKFYTAVSGRDGCTEYYMYDATNIRLRELSLGYSLPQSWLAKAGGAFKDVQLSFVARNLFFISKKAPFDPDAVLSTGNDNQGIDVFGMPTTRSLGFNIKFTF | not soluble
7 | MKLTQLDLSHNNLSVIPTWALTYLHSLQILHLENNRIDVLRSNTFDETQLNNLQFLYLDNNQLRIIPNLAFNHLRLVVLMLANNRITEIQKMSLPQTLKFLVLRNNLLTQIPYVALNDLKTLQSIDLEGNNITHLMDTNEVTFESEMKVILRNNKVRRLDKHSFRSFRKIRELDISYNQIQTVEDSSFETVGHMQSLDLSYNRIAYLPRGMLKNFAKTLKTLKLAENMIHATPEALRDLRNLTHLNLNGNKLNRIDGDVLKGCTDTLVELFIANNYLEHIPHGVLSGMKQLEHLDISKNKIMSLKKPTSLLSITKEETSTVRRLNLAGNRINNMSDYLIFEHMPLLTYVDVSFNRIRFISPRVFEKLKNLESLFLQNNQLAHFPSLFRLDKLRHLMLDNNQIQKIDNFSLADLPKLQHLSLAGNQLDIITENMFGSSSSSELKSLNLAHNKIHSISSRSFSDLDNLQQLRLSHNNIRTITSMTFSNLRNLRYLDLSHNRIIKILPSALYQLPALDVLHLDHNNLNEIDRDAFRSFSDLQSLKLSHNAFRRFSCEFLGSISQVHQLDLSSNQINEIDIFCIARGIRKLSLASNSVEKINRKLLQDATELTSIDISHNGIIDVDSDAFCECRKLSHIKLSHNYIRNLWKGTRVCIPWISHLTTFCFFTKEHLERTISFSYIIVDSSQLTSFGNLSILSFANNKVDSIEDGAFENLLSLKILDLSNNPVTSWSPTAFRDLSHSISSINMANTGLFSMPKFSHRSIQSLNISCNKIYELSEKDLAPLTKVVALDISHNNLKQISSMAFEPLIHLKQLNVSANPITHLTNEHIQQLYKLYNIPDMARPYQISSILSNLPPLHTIYVDIKESALDRQFYTADTRLLRHLVVAGRNLTKIEVGAFATIRGFRVRIEIHNSSIEEFPSRIFDTLTGISILSLSLTDNKLTTFNPFQSTVAPAVNQHGTILHSLELKNNPIKCDCQFKWMDDFIRVTKFLSDHHISHDFDKVECADAQSSNLESFASAANELFSYKTKMTLLSKSEDFGLECAVKYSNPLKPLIYVLMLVCLSYL | not soluble
8 | MGSDKIHHHHHHMITSKDNLTLIFVHACGVGNWMWYKQKDYFSNFSCMFIELPEHGDNYNIQPFSVKSAIKMIDKTVRSASGEVVLIGHEMGARLILNYLAEYTNDKVKKIVLSSTMIKTVKEGLFHKILPAKIIEKEFEKKNKNLQNIDFIKKTLDYYGVEEEYKDYYLNDMKRYKPRQLIKIIQEGLLKKLPLNLFIDNDIPALILVGEKETNANRLSAKLLSEYFSNSELIIVDNSTDNHIRTNSMVFNDRVKNFILT | not soluble
9 | MAHHHHHHSLTTDLPAAYHIEQRAHAFPWSEKTFASNQGERYLNFQLTQNGKMAAFAITQVVLDEATLFNIAVDPDYQRQGLGRALLEHLIDELEKRGVATLWLEVRASNAAAIALYESLGFNEATIRRNYYPTTDGREDAIIMALPISMEG | not soluble
10 | MDVENEQILNVNPADPDNLSDSLFSGDEENAGTEEVKNEINGNWISAYSINEARINAKAKRRLRKNSSRDSGRGDSVSDSGSDALRSGLTVPTSPKGRLLDRRSRSGKGRGLPKKGGAGGKGVWGTPGQVYDVEEVDVKDPNYDDDQENCVYETVVLPLDERAFEKTLTPIIQEYFEHGDTNEVAEMLRDLNLGEMKSGVPVLAVSLALEGKASHREMTSKLLSDLCGTVMSTTDVEKSFDKLLKDLPELALDTPRAPQLVGQFIARAVGDGILCNTYIDSYKGTVDCVQARAALDKATVLLSMSKGGKRKDSVWGSGGGQQSVNHLVKEIDMLLKEYLLSGDISEAEHCLKELEVPHFHHELVYEAIIMVLESTGESTFKMILDLLKSLWKSSTITVDQMKRGYERIYNEIPDINLDVPHSYSVLERFVEECFQAGIISKQLRDLCPSRGRKRFVSEGDGGRLKPESY | soluble
11 | MGSDKIHHHHHHMQGIQQSLPLAVVRGEPVRELPADLFIPPEALEVFLEAFEGPLDLLLYLIRKQKLDVIELPLTLIAAQYLEYIRLLTDARIELAADYLVMAATLAEIKSRLLLPKMAVEDDEEEDPRVRLIKQLKAYESIREAAFKLDELPRLERDVHQARAQAAPGLKPEVIPPDVSLKELALAFAEVLKRASAFEHHQVKKEVLSTRERMSEILAKLDHEHFTPFTALFSPEEGRGGVVVSFLALMELVKETLVELYQAEPLSGIYVKAT | not soluble
12 | PESPGGRGIKPDTCPAPGPRSPLQLPLAPDAESGSSGRRPGEPRDPLKLQQLQNQIRLEQEAGARQPPPAPRSAPPSPPFPPPPAFPELAACTPPASPEPMSALASRSAPAMQSSGSFNYARPKQFIAAQNLGPASGHGTPASSPSSSSLPSPMSPTPRQFGRAPVPPFAQPFGAEPEAPWGSSSPSPPPPPPPVFSPTAAFPVPDVFPLPPPPPPLPSPGQASHCSSPATRFGHGQTPAAFLSALLPSQPPPAAVNALGLPKGVTPAGFPKKASRTARIASDEEIQGTKDAVIQDLERKLRFKEDLLNNGQPRLTYEERMARRLLGADSATVFNIQEPEEETANQEYKVSSCEQRLISEIEYRLERSPVDESGDEVQYGDVPVENGMAPFFEMKLKHYKIFEGMPVTFTCRVAGNPKPKIYWFKDGKQISPKSDHYTIQRDLDGTCSLHTTASTLDDDGNYTIMAANPQGRISCTGRLMVQAVNQRGRSPRSPSGHPHVRRPRSRSRDSGDENEPIQERFFRPHFLQAPGDLTVQEGKLCRMDCKVSGLPTPDLSWQLDGKPVRPDSAHKMLVRENGVHSLIIEPVTSRDAGIYTCIATNRAGQNSFSLELVVAAKEAHKPPVFIEKLQNTGVADGYPVRLECRVLGVPPPQIFWKKENESLTHSTDRVSMHQDNHGYICLLIQGATKEDAGWYTVSAKNEAGIVSCTARLDVYTQWHQQSQSTKPKKVRPSASRYAALSDQGLDIKAAFQPEANPSHLTLNTALVESEDL | soluble
13 | MGSDKIHHHHHHMIRKNHKPAFCDENPIDCHFDVKSYPAGTTVHNNDTNIIYLIFCMKGHARITSTFFHDEILCAGEVMFVPHGSEYSGVALSDVTLLVHKFNNTVCRAENCILSYLYSHKNIDSKIYCCQRRT | not soluble
14 | MCMDLESLLAIKHFRADQAQLALKRQQQAAVAAAAQRQAQGRLDDCRLWAGQLENRLYAELCRRIVKTRDIDEVLQRVGHARDRQASLALQLDDAVRRHEHEIQLLAQQREQHRECFQAQQRIAELVRLQQVEAAALRESLEDREIQEAIELSARGRDDASRAGDGLARLLEHHHHHH | not soluble
15 | MSLVQLYVSDSVSRISFADGRVIVWSEELGESQYPIETLDGITLFGRPTMTTPFIVEMLKRERDIQLFTTDGHYQGRISTPDVSYAPRLRQQVHRTDDPAFCLSLSKRIVSRKILNQQALIRAHTSGQDVAESIRTMKHSLAWVDRSGSLAELNGFEGNAAKAYFTALGHLVPQEFAFQGRSTRPPLDAFNSMVSLGYSLLYKNIIGAIERHSLNAYIGFLHQDSRGHATLASDLMEVWRAPIIDDTVLRLIADGVVDTRAFSKNSDTGAVFATREATRSIARAFGNRIARTATYIKGDPHRYTFQYALDLQLQSLVRVIEAEGHHHHHH | not soluble
16 | MGSDKIHHHHHHMEQLPILNLSDWHAGGQSRHAFITKLADAARRIGFFYLTGHGIELARQQQVLLLARDFFALPLADKLAVKMTNTPHFRGYTRLQGELTLGKPDLREQFDIMQEETANPPRSDVPKWSQLQGPNQWPSQLPQMKTILLEWQQDLADTSVALLKALAVALEQSETAFDATIDAGPYQHMKLIRYPNANGETSGQGVGAHKDPGYLTLVLQDKQSGLEVQTDEGWLSIPPLEGAFVVNIGELLELASNGYLKATYHRVTSPPAGVERYSCAFFMAAQLNATVPLLPLPEYLARQALGPASDPLNPLFHQVGQNVLKGRLRSHPDVAKAHYASFANAI | not soluble
17 | MAHHHHHHMLTRSERGMCNGRVPTKGLVGFLSGSSTGTEWRDEYLGVNAIVHGPAEKRIGVPNGVTFQGSWAEWPVGDMGQTVPYYFANNKFTLVATVSIHEVPKEDSSPIPLIGVRMNDTSSTVLFALSYTHDRKWLAIPEDAGGVEDLFGWEPHTTYQAVLRMTLDEWTAFVDQREIDRKSYNENLFDSHRISHFYIGGDSNDQSATDGHVTVTNVMLYNEDLYNNELYEPNASKVNIPSLGVEEHPTGQVTSTEVSVVHESKSEEITASCAELNEDDTDKQEEETASMIRCLQRPLPRLTRDHLFLSLPSQRRAQGMTVQRTMSSFTRAKRPSKPRRMKRINRCNGVQTCSHKTHSQRN | not soluble
18 | TRTEISPGKAPFTIEHNQTVVTIGSCFSDMIGEKLQYYKFDVLANPFGTTFNPISIFQLLTIAIEKKFNPFPASLGEIWYDHQFHSEVSALSAEALHELTNERIAAATKSLARASCLVITLGSAWVYRHVETNTIVNNCHKQSGRYFKKELLSVKHILEDFETVYAKLKELNPSIKIIFTVSPVRHIKDTLQLNSVSKAILLSSVHYMCEQHTDCHYFPSYEIQMDDLRDYRYYAEDLIHPSKQAEKYIWKKLSNWVFSSDLLAALEEWDQLQKLLHHKAF | not soluble
